In the data set the test system is T1, rBDD FVIII (recombinant B-domain deleted FVIII, REFACTO).
T1 sequence: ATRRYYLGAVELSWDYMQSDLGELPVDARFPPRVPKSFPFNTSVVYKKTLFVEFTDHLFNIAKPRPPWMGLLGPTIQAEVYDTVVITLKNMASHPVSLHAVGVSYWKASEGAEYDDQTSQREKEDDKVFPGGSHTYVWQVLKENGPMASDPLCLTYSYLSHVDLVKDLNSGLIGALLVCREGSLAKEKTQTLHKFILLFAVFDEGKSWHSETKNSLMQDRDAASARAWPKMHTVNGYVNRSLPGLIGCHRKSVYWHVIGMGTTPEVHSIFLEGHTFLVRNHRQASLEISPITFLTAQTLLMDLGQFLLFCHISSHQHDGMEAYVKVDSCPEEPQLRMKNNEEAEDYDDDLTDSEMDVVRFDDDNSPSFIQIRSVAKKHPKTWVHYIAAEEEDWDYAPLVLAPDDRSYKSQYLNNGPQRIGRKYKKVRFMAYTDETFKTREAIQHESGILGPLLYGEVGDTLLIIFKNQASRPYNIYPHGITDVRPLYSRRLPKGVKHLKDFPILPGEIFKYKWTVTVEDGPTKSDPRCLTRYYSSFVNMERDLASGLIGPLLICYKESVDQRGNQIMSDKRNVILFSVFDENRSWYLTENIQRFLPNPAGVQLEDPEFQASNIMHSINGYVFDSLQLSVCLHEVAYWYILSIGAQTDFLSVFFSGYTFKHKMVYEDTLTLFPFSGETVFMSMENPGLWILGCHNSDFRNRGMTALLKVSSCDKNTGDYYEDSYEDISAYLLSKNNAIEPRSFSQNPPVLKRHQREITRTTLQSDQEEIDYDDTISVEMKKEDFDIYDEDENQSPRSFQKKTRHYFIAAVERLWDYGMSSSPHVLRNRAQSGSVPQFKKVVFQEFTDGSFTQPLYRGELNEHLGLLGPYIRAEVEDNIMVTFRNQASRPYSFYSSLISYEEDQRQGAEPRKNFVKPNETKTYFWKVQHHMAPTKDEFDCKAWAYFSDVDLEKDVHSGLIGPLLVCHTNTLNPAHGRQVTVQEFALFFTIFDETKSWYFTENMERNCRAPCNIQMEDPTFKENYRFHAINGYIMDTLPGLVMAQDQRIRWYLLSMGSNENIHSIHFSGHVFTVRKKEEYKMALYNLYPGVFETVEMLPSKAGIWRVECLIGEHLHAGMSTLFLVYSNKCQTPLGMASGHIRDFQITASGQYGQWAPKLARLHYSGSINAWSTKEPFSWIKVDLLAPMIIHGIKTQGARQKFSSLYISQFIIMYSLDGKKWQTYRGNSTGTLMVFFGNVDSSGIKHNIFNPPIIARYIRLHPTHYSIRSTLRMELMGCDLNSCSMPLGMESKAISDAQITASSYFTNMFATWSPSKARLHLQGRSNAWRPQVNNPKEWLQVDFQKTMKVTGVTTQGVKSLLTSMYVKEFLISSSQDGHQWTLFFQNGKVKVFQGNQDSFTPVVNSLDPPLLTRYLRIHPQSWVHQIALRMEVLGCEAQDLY

Consider Factor X (FX), for which the Km (activation of Factor X by the Xase complex) stood at 0.051 µM and the Vmax (activation of Factor X by the Xase complex) is 73.5 nM/min.

Consider activated Factor IX (FIXa), for which the Vmax (FXa generation, varying FIXa) stood at 4 nM/min.

The values are drawn from patent US20160199455.
